The data set is described as follows: label from the status in PepcDB records.

Take “MTPPEIDFFPDFIADPHRLFNHLKDSVLWDERMRARKTASFGAPYDYSQITYPAVPMPEALEQLCGPIEQLLGFRPNNCLLNCYPDGHSSMGFHSDANEQLVTGTGVVIVSLGHARAMVFRHKESGATFDYSLASGSLLHMSDELQKHWLHAIPKAPDAGERISLSFRQLKTGLEHHHHHH”: the protein production entry is on record as “not failed”. Consider “MTPPERVRRKCPQTNTREPIIQEPDTFEPEATRRDAGATESSRANRGWWDRNADDYQVEHGTFLGDDRFVWCPEGLDEVEAELLGPAEDLKGKDVLEIGAGAAQCSRWLAGQGARPVALDLSHRQLQHALRIGGDVPLVEADAGALPFADASFDLACSAYGALPFVADPVRVLREVHRVLRPGGRFVFSVTHPIRWAFPDEPGPEGLSVSASYFDRTPYVEQDEEGGAVYVEHHRTIGDRVRDVVAGGFRLLDVVEPEWPAWNTQEWGGWSPLRGNLIPGTAIFVCVRD”, for which the protein production entry is “failed”.

As for “MTPSPHDLLHCGMNSQDRDETNGDRQRLVRVALGQEDGDLLVRGAQVVQPVTREVYAADVLVAGGRVAAVGPDLPARARRTVQARGAYLAPGFIDGHIHIESSLLTPASFAAAVLPHGTTAVVAEPHEIVNVLGPAGLNWMLGAGRTSGLRVYASAPSCVPASEFEQGGARVDAAQVAEMLARPGVLGLAEMMNYPGVLGGDAGVWDILNAGRRSGKRLDGHAAGLGGRELLAYAAAGLHSDHEATTPEEARERLRAGLWLMVREGSAARNLAALLPVLRDLPRRALLVSDDVSVDELLELGHLDRLLRTCVAGGLHPADAVALVTSQPAEYWGLHDLGVIAPGYHADFVLLRDLQHFGVLETFVGGEEARPGGETPPLPGGGVDLGPGWDGATFDPPAHWPTLQMFPDQIVTGRAAPGSGDARLVVADRYGRGEWSSCWTLGSGLRGGTLGISILHDAHQVALLGGSDADLRAAGRALERLGGGIVLVVDGEVREQLPLPYAGLMTDHAPAEAAAALGRVTAAARLLGCMPAGRL”, the protein production entry is “failed”. Next, “MTPTQNVPEDRIQIGQLRSAYGLNGWLWVYSNTEPMSNMFDYLPWFIETKAGWQTVDVKRWKPHGKGLVVSLKNVSDRNAAESLIGSTIWVAKSQLPKTDVDEYYWSDLKGLTVLGLDEEEQEVNLGQIHELFETGANDVMVVRATADSVDAEERMIPWHKDVVQRVDLEAGRIYVNWGVDYLEHHHHHH”: “not failed”; “MTPYQGEPLSLNFQDVEVRAVLQVLADYAGVNLVASDAVQGSVTLRLQDVPWDQALDLVLRSKGLSRRQEGNVLLVAPAAEFAAQSADARVSQALDAHLQPLRRELLPIHHAKAADLAQLLLAGLEGDGIPPASLSVDERTNTLVVHLPADRLAEMRQLVAQLDVPVRQVAIEARIVEANVDYEKSLGVRWGGPLYGEKLRPGKELFVDLGLERAGSSIGLGLLRGDVLLDLELSAMEKSGNGEIISQPKVVTADKETARILKGTEVPYQETSQSGATSVSFREASLSLEVTPQITPDNKVIMTVRVTKDEPDYVNALNNVPPIRKNEVNAKVRVADGETIVIGGVYSTSQNNVVDKVPFFGDLPYVGRLFRRDALQEKKSELLVFLTPRIMSDQAIAVSRLEHHHHHH”: “failed”; “MTPYTEVELTLIQYVLVVVSGFIIGLILGLIGGGGSILAVPLLLYFVGLGNDSSSFGNYSNITHLVLGTSALAVGLNAYINSFIHWRKGNVKVFEGVVFTIPGVIGSILGAYFGYLTTGNLILIMFGIVMILIGLRMIKSKCKEGSNETKGSGDTGVVKSKDRINIRIIYTGFLVGLASGFLGIGGGFLIVPALLFSTSMSIISAIGTSLISVGTFGLSTALTYASYGEIDYILSLILLAGGVGGGYIGTLLASKSPRSTLRKVFGVVLIVVAIYIIYRNLLL”: “failed”. The result for “MTQAATILRTGRKFDQVLRGAREVFMSDGFEGANVDDIARAAGVSKATLYSYFPDKRLLFVEVAQTECQLMAERILSMIDEDRPVREVLTITATQLVAFLISDFAQQVFRICLAERERFPELARAFYAAGPENGQRQICEYLEKAVTKGELVIADIPMAAEQFSELCKTRLWTRAVFGIQTRFTQAEIDEVALAAVDTFLARYGA” reads “failed”; that for “MTQDNASGDQVSKQHKAFLRKLYLAHLMDDARHNLLSLGKLTGMPRRTLQDAIASFADIGIEVEFVQDGERHNAGYYRIRTWGPISSAWMDTHVDEVKSLLGVDDAVGQATAGNGA”, “not failed”. The result for “MTQETALGAALKSAVQTMSKKKQTEMIADHIYGKYDVFKRFKPLALGIDQDLIAALPQYDAALIARVLANHCRRPRYLKALARGGKRFDLNNRFKGEVTPEEQAIAQNHPFVQQALQQQSAQAAAETLSVEAEAAESSAAE” reads “not failed”; that for “MTQHLTIAQTYLAAWNEEDNERRRHLVGQAWAENTRYVDPLMQGEGQQGIAAMIEAARQKFPGYRFVLAGTPDGHGNFTRFSWRLISPDGDDVAGGTDVVSLNTEGRIDNVVGFLDGAVS”, “not failed”. “MTQIARISDTGTERRLQAERLIGAKALQEAQALRFNVFSGEFNAKLKGAELGLDMDDYDVHCSHIGVRDLNTGRLVATTRLLDHQAANSLGRFYSEEEFSLHGLVQLKGPILEIGRTCVDPAYRNGGTIAVLWGELAEVLNQGGYSYLMGCASIPMQDGGVQAQAIMQRLRERYLCTEHLRAEPKNPLPSLDIPSNVIAEMPPLLKAYMRLGAKICGEPCWDEDFQVADVFILLKRDELCPRYARHFKAAV”: the protein production result is given as “failed”. With “MTQKVALIGFGGVAQGFIQILRERGEELPEHIQVVSITDWRRGAVHDPNGLDLDFIAKIIETDGTFEHYPERSGVIKGWNSFETIQQTNADTIVEVTFTDVLTGQPAIDHCKEALRLGKHVVTTNKGPIAVAYQELKELADANGVQLLYEGTVMSGTPALRLPEHTLIGNNIQEVKGILNGTTNYILTEMERGKTFEQALQDAQTLGYAEADPTSDVEGYDVLYKVVILANVMMGIPLKPSDVERVGISHLTPRDIKDAHSAGERWKLIGRVKKEGERTMATVRPERLPLTDPLANINGAINAITYECDISGPITLIGAGAGVKETGFALLIDLLHVNRLGE”, the protein production result was “failed”. Regarding “MTQLDTWLANTKPLIPVIVIDDLVHAIPMAKALVAGGVHLLEVTLRTEAGLAAISAIKKAVPEAIVGAGTVCTADDFQKAIDAGAQFIVSPGLTPELIEKAKQVKLDGQWQGVFLPGVATASEVMIAAQAGITQLKCFPASAIGGAKLLKAWSGPFPDIQFCPTGGISKDNYKEYLGLPNVICAGGSWLTESKLLIEGDWNEVTRRASEIVKLSDI”, the protein production entry is recorded as “not failed”. The result for “MTQLELLLERIIDRVNVNLRHQKFDVGDYVRRQTPHLHYSKFYAFYGLSADDPVHFHFKNSSLAGSYLLGRVNVLHSALYKSDIRGDELKRKGQHFVCDGKMIPLHDDEVITIKDSFLNKTLVHSNSHDPESPEEFTIRNTVAMPYANIHGSLTEGSFIGSFATVDLSTIHNSVVRYFSYVQTGELVGKCVEPGQIWIKSGDELEFHYSFDKAILDKYISQEAGSCPTGVLMEFVEVRQEDFEEVFASGHMASGAGSASGASVSGYAVIKGDTVIGENVLVSQRAYLDNAWMGKGSNAQENCYIINSRLERNCVTAHGGKIINAHLGDMIFTGFNSFLQGSESSPLKIGDGCVVMPHTIIDLEEPLEIPAGHLVWGYIRNKADLAAHSISFEEFAKVDGEVTMGRMTFRGKGGPFLDSFKKRIKRILSENGAFFDGSEGTGHAQKGKNFTFNIIQPYQDGDPRGMYPTILIQPNNGS” reads “not failed”; that for “MTQQTDLQSKTNIDPLAMNDSFLAAADALAVDPMFGIPANVREVIARRGNATRLVILGTKGFGAHLMNVRHERPCEVIAAVDDFRYHSGELYYGLPIISTDRFTELATHDRDLVALNTCRYDGPKRFFDQICRTHGIPHLNFEQAVRAFGLQGNVDYRVDDWGADIVRNIPAFQTLAQRLADDYSVQTLYAVLNFHLTCEPEYYHEVERPYSTLYFRSGLLRFSDSEKMVDCGASIGESLAGLIGVTKGKFERVWMIEPDRINLQTLQNVLRRYTDTNFASRITVHGCGAGENTIRVPFNHEGGHGGFVKPADADHEPADLIDVRPIDDIIDDAPTFIKMDIEGSELSALKGARRAISEHKPKLAISAYHRSTDLLDLTNYILSIRPDYQIGLRHHTPDRWDTCLYFY”, “not failed”.

On to “MTQRRAMLILHGKQSLNEDVRDAVADKRKQGWELDVRLTWEAGDAQRLVNEALAAGHRHIVAGGGDGTLRDIAEALALAATKASLTILPLGTANDFARAAGVPLDVSKALQLMDVAPRAVDLGEVGGKLFLNMATGGFGSQVTANTSEDLKKVLGGAAYLFTGLTRFSELHAAHGELTGPDFHWRGDLLALGIGNGRQAGGGHELCPTALADDGLLDISILPAPQEVVGTLRSLLEGGLGIDNMFIRARLPWVELKSAQGLDINLDGEPLSGEDLRFVARPGALQVHLPANSPVLGSTPLLNRPD”, for which the protein production entry is reported as “not failed”.

In the case of “MTQSLFDFSAYFKFFIGLFALVNPVGIIPVFISMTSYQPAAVRNKTNLTANLSVAIILLTSLFLGDGILQIFGISIDSFRIAGGILVVTIAMSMISGKLGEDKQNKQEKSETAVRESIGVVPLALPLMAGPGAISSTIVWGTRYHSWVHLVGFSLAIAVFALCCWGIFRMAPWLVRLLGQTGINVITRIMGLLLMALGIEFIVTGIKALFPGLLS”, the protein production entry is “failed”. On to “MTQSPDITAKSWAMVATLGFVWGGTFLINELALEGITPFWLAAGRVCFGALLSTLVWRAMGGRLFSAPLSGSERLSLVIIALLSSAVPFSLIAWGQQYVTAGFTGVSMASIALMVLPLAHFFVPGERMTWRRALGFAIGFAGVALLMGAQAFESSGAALELPGRLACLAATACYAVASILMRRLPAVDPMGLSTVLLLIGVVAVLPMAWIAEGPPPSTDLRTLGLIVFLGMVPTAAANLLRVTLIRSAGPVFMSLTNYQVPIWSVLLGAALLGEPLPPVLLWSLLLILGGVGLSQYGALRRLFTRQ”, for which the protein production entry is reported as “failed”. Regarding “MTQTQSLALYTVAILVGALTGGSLPLLGRVGRSDIGLSFSAGVMLGAAFFHMLPEAVEESGAGILPFVLVGFLLLFLLERFVLVHVCAEPGPNARLSQAAPLPAGIEAGHGHDHHHHGHAHVATGGALALEDDGTGCAVHTTLGLAAFLGMSAHTLVDGFALGAASGQAELGLLVFLAILAHKIPNSFSLSAILRAEGYSRGRALAMNAVFALMVPVGAGIYLVLRELVRVETFTAAALAASAGTFLHLSLSDILPDLHRRGGSKWVLSGALLAGLAVMWGLRALNHAH”, the protein production result is “failed”. Consider “MTQTVKLDILSDPICPWCYIGKTQLDKALAAIPDHPFVIEWHPFQLNPDMAPEGMDRREYLERKFGGKEGAVRAYAPVVEHAEKAGLAIDFEAMQRTPNTLDAHRLIHWAGVEGKQTEAVDALFAAYFTEGRDIGDAEVLADIADSIGMDAAVVLKLLKSDADRDDIAKRDSHSREMGVSSVPTFIVANQHAVPGAQPPELWEQVIREIMSQIETTSA”, for which the protein production entry was “not failed”.
